Data taken from publication PMC9539438.
Several values for one entry are separate records, joined by “and”; a condition that tells them apart may be missing. Identical values can stand only once.

Legend:
[1] = biological target: P66 with a c-Myc epitope tag inserted C-terminally to D303 (Borrelia burgdorferi); assay: native gel or EMSA; Blue native PAGE (4-16% Bis-Tris) of membrane B-fractions solubilised in 1.25% digitonin; immunoblot with anti-P66 or anti-c-Myc
[2] = biological target: P66 with a c-Myc epitope tag inserted C-terminally to D303 (Borrelia burgdorferi)
[3] = biological target: P66 with a c-Myc epitope tag inserted C-terminally to E33 (Borrelia burgdorferi); assay: native gel or EMSA; Blue native PAGE (4-16% Bis-Tris) of membrane B-fractions solubilised in 1.25% digitonin; immunoblot with anti-P66 or anti-c-Myc
[4] = biological target: P66 with a c-Myc epitope tag inserted C-terminally to E33 (Borrelia burgdorferi)

Substance | stoichiometry N [1] | single-channel conductance of the outer membrane fraction in black lipid bilayers (1 M KCl, 20 mV) [2] | stoichiometry N [3] | single-channel conductance of the outer membrane fraction in black lipid bilayers (1 M KCl, 20 mV) [4]
P66 with a c-Myc epitope tag inserted C-terminally to D303 (natural protein) | 3 and 5 | < 4 nS | – | –
P66 with a c-Myc epitope tag inserted C-terminally to E33 (natural protein) | – | – | 3 | < 4 nS
